Source: US20250090644A1

Columns and labels:
Experiment in all cases: cell-based or functional assay
[1] = target: E. coli expressed recombinant human microplasmin Arg582Ala (human) (UniProt P00747)
[2] = target: E. coli expressed recombinant human microplasmin Arg610Ala (human) (UniProt P00747)
[3] = target: E. coli expressed recombinant human microplasmin Glu641Ala (human) (UniProt P00747)
[4] = target: E. coli expressed recombinant human microplasmin Gly739Ala (human) (UniProt P00747)
[5] = target: E. coli expressed recombinant human microplasmin K642A (Table 3) (human) (UniProt P00747)
[6] = target: E. coli expressed recombinant human microplasmin Lys607Ala (human) (UniProt P00747)
[7] = target: E. coli expressed recombinant human microplasmin Met585Ala (human) (UniProt P00747)
[8] = target: E. coli expressed recombinant human microplasmin Phe587Ala (human) (UniProt P00747)
[9] = target: E. coli expressed recombinant human microplasmin Pro642Ala (human) (UniProt P00747)
[10] = target: E. coli expressed recombinant human microplasmin Ser608Ala (human) (UniProt P00747)
[11] = target: E. coli expressed recombinant human microplasmin, wild type (human) (UniProt P00747)

IC50 (relative to the µPlm WT enzyme) (fold relative to WT) [1]: 1.6
IC50 (relative to the µPlm WT enzyme) (fold relative to WT) [2]: 1.7
IC50 (relative to the µPlm WT enzyme) (fold relative to WT) [3]: 1.6
α2-AP inhibition of µPlm activity [4]: > 400 nM
IC50 (relative to the µPlm WT enzyme) (fold relative to WT) [5]: 1
IC50 (relative to the µPlm WT enzyme) (fold relative to WT) [6]: 1
IC50 (relative to the µPlm WT enzyme) (fold relative to WT) [7]: 1.2
IC50 (relative to the µPlm WT enzyme) (fold relative to WT) [8]: 3.9
activity remaining in the presence of α2-AP (% activity remaining) [8]: 50
IC50 of α2-AP inhibition (fold of WT) (fold relative to WT) [9]: 2
IC50 (relative to the µPlm WT enzyme) (fold relative to WT) [10]: 1.2
IC50 (relative to the µPlm WT enzyme) (fold relative to WT) [11]: 1
B1: α2-antiplasmin (protein, UniProt P08697 40-491, looked up)
chain: NQEQVSPLTLLKLGNQEPGGQTALKSPPGVCSRDPTPEQTHRLARAMMAFTADLFSLVAQTSTCPNLILSPLSVALALSHLALGAQNHTLQRLQQVLHAGSGPCLPHLLSRLCQDLGPGAFRLAARMYLQKGFPIKEDFLEQSEQLFGAKPVSLTGKQEDDLANINQWVKEATEGKIQEFLSGLPEDTVLLLLNAIHFQGFWRNKFDPSLTQRDSFHLDEQFTVPVEMMQARTYPLRWFLLEQPEIQVAHFPFKNNMSFVVLVPTHFEWNVSQVLANLSWDTLHPPLVWERPTKVRLPKLYLKHQMDLVATLSQLGLQELFQAPDLRGISEQSLVVSGVQHQSTLELSEVGVEAAAATSIAMSRMSLSSFSVNRPFLFFIFEDTTGLPLFVGSVRNPNPSAPRELKEQQDSPGNKDFLQSLKGFPRGDKLFGPDLKLVPPMEEDYPQFGSPK
